This assay addresses biotinylated avi-tagged SARS-CoV-2 (Wuhan) receptor binding domain (RBD) (SARS-CoV-2 (Wuhan strain), UniProt P0DTC2, biotin (avi-tagged RBD labeled with biotin, BirA500)). Put plainly: BLI. The following applies: both partners purified.

Here are results for two molecules from publication PMC9089897 (PLoS Pathogens, 2022).

B1: REGN10933 (antibody, V domains shown)
VH: QVQLVESGGGLVKPGGSLRLSCAASGFTFSDYYMSWIRQAPGKGLEWVSYITYSGSTIYYADSVKGRFTISRDNAKSSLYLQMNSLRAEDTAVYYCARDRGTTMVPFDYWGQGTLVTVSS
VL: DIQMTQSPSSLSASVGDRVTITCQASQDITNYLNWYQQKPGKAPKLLIYAASNLETGVPSRFSGSGSGTDFTFTISGLQPEDIATYYCQQYDNLPLTFGGGTKVEIK
notes: also called Casirivimab
As for B1, the binding result is on record as “binds”.

B2: REGN10987 (antibody, V domains shown)
VH: QVQLVESGGGVVQPGRSLRLSCAASGFTFSNYAMYWVRQAPGKGLEWVAVISYDGSNKYYADSVKGRFTISRDNSKNTLYLQMNSLRTEDTAVYYCASGSDYGDYLLVYWGQGTLVTVSS
VL: QSALTQPASVSGSPGQSITISCTGTSSDVGGYNYVSWYQQHPGKAPKLMIYDVSKRPSGVSNRFSGSKSGNTASLTISGLQSEDEADYYCNSLTSISTWVFGGGTKLTVL
notes: also called Imdevimab
With B2, the binding result is reported as “binds”.
